Results as given in US7556938B1, “Nucleic acids encoding potassium channel interactors” (Millennium Pharmaceuticals, Inc., priority 1998, dated 2009).

Assays:
rKv4.2 = molecular target: T1, rKv4.2 (Rattus norvegicus, UniProt Q63881); test: Patch-clamp of Kv4.2 currents in CHO cells coexpressing KChIPs; assay type: cell-based
T1 construct: expressed in transfected cells; host or cells: CHO cells, transient transfection with GFP co-transfected
T1 sequence (Q63881 1-630): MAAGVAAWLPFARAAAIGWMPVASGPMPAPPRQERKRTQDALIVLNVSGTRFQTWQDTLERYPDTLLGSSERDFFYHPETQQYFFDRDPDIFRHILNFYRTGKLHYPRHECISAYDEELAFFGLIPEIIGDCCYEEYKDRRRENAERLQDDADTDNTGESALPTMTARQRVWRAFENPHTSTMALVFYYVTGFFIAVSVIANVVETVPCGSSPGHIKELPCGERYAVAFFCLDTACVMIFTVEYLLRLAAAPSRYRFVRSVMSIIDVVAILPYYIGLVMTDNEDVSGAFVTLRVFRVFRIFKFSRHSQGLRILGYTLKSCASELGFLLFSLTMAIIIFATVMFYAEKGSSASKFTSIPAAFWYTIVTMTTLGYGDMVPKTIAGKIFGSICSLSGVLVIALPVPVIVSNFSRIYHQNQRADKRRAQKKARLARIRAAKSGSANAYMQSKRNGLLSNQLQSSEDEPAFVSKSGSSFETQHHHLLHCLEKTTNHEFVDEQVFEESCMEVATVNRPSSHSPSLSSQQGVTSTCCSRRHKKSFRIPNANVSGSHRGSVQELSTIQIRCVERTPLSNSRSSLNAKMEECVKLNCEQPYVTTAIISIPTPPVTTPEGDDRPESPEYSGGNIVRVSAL
Procedure: HEK 293 and CHO cells were used for recordings 1-3 days after a transient transfection. Whole-cell currents were recorded from cells expressing GFP, identified by their green fluorescence. […] After Gigaseal and ruptured whole-cell configuration access, resistance was less than 10 MOhms. Whole-cell bath solutions were made from a 10× Hank's balanced salt solution (GibcoBRL) with the following final concentration (in mM): 138 NaCl, 5.4 KCl, 1.3 MgCl2, 1.3 CaCl2, 5.5 D-Glukos and 10 HEPES, pH 7.4. The intracellular electrode solution consisted of (in mM) 140 KCl, 10 HEPES, 10 EGTA, 0.5 MgCl2, pH 7.3. All chemicals were from Sigma (St. Louis, Mo.) or Fisher Scientific (Houston, Tex.). Membrane currents were recorded using a EPC9 patch-clamp amplifier (HEKA, Germany). Data were analyzed using Matlab (Natick, Ma), and leak subtracted if necessary. All experiments were done at room temperature.
Because PCIPs, e.g., KChIP1 (1v), KChIP2 (9ql), and KChIP3 (p19), colocalize and coassociate with Kv4 α-subunits in brain, another critical question was to determine whether these PCIPs alter the conductance properties of Kv4 channels. To address this issue, Kv4.2 and Kv4.3 were expressed alone and in combination with individual PCIPs. CHO cells were transiently-transfected with cDNA using the DOTAP lipofection method as described by the manufacturer (Boehringer Mannheim, Inc.). Transfected cells were identified by cotransfecting enhanced GFP along with the genes of interest and subsequently determining if the cells contained green GFP fluorescence. Currents in CHO cells were measured using the patch-clamp technique (Hamill et al. 1981. Pfluegers Arch. 391: 85-100).
First, the amplitude of the Kv4.2 current increased approximately 7.5 fold in the presence of KChIP1 (amplitude of Kv4.2 alone=0.60+/−0.096 nA/cell; Kv4.2+KChIP1=4.5+/−0.55 nA/cell). […] Finally, the kinetics of Kv4.2 inactivation slowed considerably when Kv4.2 was coexpressed with KChIP1 (inactivation time constant of Kv4.2 alone=28.2+/−2.6 ms; Kv4.2+KChIP1=104.1+/−10.4 ms), while channels recovered from inactivation much more rapidly in cells expressing both Kv4.2 and KChIP1 (recovery tau=53.6+/−7.6 ms) versus cells expressing Kv4.2 alone (recovery tau=272.2+/−26.1 ms).

rKv4.3N = molecular target: T2, rKv4.3N (Rattus norvegicus, UniProt Q62897); test: Yeast two-hybrid binding and specificity test, Kv4.3 N-terminal bait
T2 construct: expressed in transfected cells; host or cells: yeast HF7c (bait), mated with Y187 (fish)
T2 sequence (Q62897 1-180): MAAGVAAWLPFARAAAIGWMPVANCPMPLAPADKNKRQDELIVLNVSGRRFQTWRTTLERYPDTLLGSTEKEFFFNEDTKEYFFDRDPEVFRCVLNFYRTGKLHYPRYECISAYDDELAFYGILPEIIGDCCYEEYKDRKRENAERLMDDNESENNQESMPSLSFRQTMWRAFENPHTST
Method in brief: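 Bait of rat Kv4.3 residues 1–180 in pGBT9, expressed in yeast HF7c, screened against a rat midbrain library. Positives scored by His and filter β-galactosidase reporters. Specificity tested by mating prey (in Y187) against a panel of related and unrelated baits and checking reporter activity.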

[1] = rKv4.2 coexpressed with the KChIP, at 50 mV

activation V1/2 (rKv4.2; Kv4.2 coexpressed with KChIP1): −12.1+/−1.4 mV
Inactivation time constant (ms, at 50 mV) (rKv4.2; [1]): 104.1 ± 10.4 ms
Peak Current (nA/cell at 50 MV) (rKv4.2; [1]): 4.5+/−0.55 nA/cell
Peak Current Density (pA/pF at 50 mV) (rKv4.2; [1]): 306.9+/−57.9 pA/pF
fold increase of Kv4.2 current amplitude (rKv4.2; versus Kv4.2 alone): approximately 7.5 fold
fold increase of Kv4.2 current density (rKv4.2; versus Kv4.2 alone): 12 fold
binding to rKv4.3N in yeast two-hybrid assay (rKv4.3N): able to bind to the Kv4.3 polypeptide
B1: KChIP1: Potassium channel interacting protein 1v, a Ca2+-binding protein that binds and modulates Kv4 channels (protein)
chain: MPARVLLAYPGTEMLTQGESEGLQTLGIVVVLCSSLKLLHYLGLIDLSDDKIEDDLEMTMVCHRPEGLEQLEAQTNFTKRELQVLYRGFKNECPSGVVNEETFKQIYAQFFPHGDASTYAHYLFNAFDTTQTGSVKFEDFVTALSILLRGTVHEKLRWTFNLYDINKDGYINKEEMMDIVKAIYDMMGKYTYPVLKEDTPRQHVDVFFQKMDKNKDGIVTLDEFLESCQEDDNIMRSLQLFQNVM
